Assays:
Format in all cases: biochemical
[1] = Steady-state kinetics of TS-PTDH variants with NMN^+
Description: (§1) Purification and Characterization of TS-PTDH Variants. The E. coli BL21(DE3) strains harboring pQElac plasmids encoding the TS-PTDH or TS-PTDH variants were grown in 2×YT media with kanamycin and ampicillin at 37° C. The IPTG-inducible expression, Ni-affinity purification, and protein concentration determination was conducted as described above.
(§2) The steady-state kinetic parameters toward the coenzymes were measured by spiking purified protein into a 100 μL reaction mixture containing 100 mM MOPS, pH 7.25, 10 mM sodium Pt, and varied cofactor concentrations from 0.02 mM to 5 mM at 25° C. The kinetic parameters were measured by monitoring the […] of reduced coenzyme at 340 nm. Data were fitted to the Michaelis-Menten equation to generate estimates of KM and kcat values.

[2] = Steady-state kinetics of TS-PTDH variants with NADP^+; conditions: 100 mM MOPS, pH 7.25, 10 mM sodium phosphite, varied cofactor concentrations; n = 3
Description: as §1, §2

[3] = Steady-state kinetics of TS-PTDH variants with NAD^+; conditions: 100 mM MOPS, pH 7.25, 10 mM sodium phosphite, varied cofactor concentrations; n = 3
Description: as §1, §2

[4] = 100 mM MOPS, pH 7.25, 10 mM sodium phosphite, varied cofactor concentrations, n = 3

B1: LY-6: phosphite dehydrogenase variant with A155N, E175Q, A176S (SEQ ID NO:4) (protein)
chain: MLPKLVITHRVHEEILQLLAPHCELITNQTDSTLTREEILRRCRDAQAMMAFMPDRVDADFLQACPELRVIGCALKGFDNFDVDACTARGVWLTFVPDLLTVPTAELAIGLAVGLGRHLRAADAFVRSGKFRGWQPRFYGTGLDNATVGFLGMGNIGLAMADRLQGWGATLQYHQSKALDTQTEQRLGLRQVACSELFASSDFILLALPLNADTLHLVNAELLALVRPGALLVNPCRGSVVDEAAVLAALERGQLGGYAADVFEMEDWARADRPQQIDPALLAHPNTLFTPHIGSAVRAVRLEIERCAAQNILQALAGERPINAVNRLPKANPAAD
[1]; [4]
  Km: 1100 ± 100 µM
  NMN^+ kcat: 0.18 ± 0.01 s⁻¹
[1]; vs parent enzyme TS-PTDH A155N
  increased catalytic efficiency (kcat/Km) for NMN^+ compared to TS-PTDH A155N: ~17 fold
[2]
  Km: 50 ± 10 µM
  NADP^+ kcat: 0.95 ± 0.05 s⁻¹
[3]
  Km: 110 ± 10 µM
  NAD^+ kcat: 1.04 ± 0.08 s⁻¹

— US20230322857A1, “RECOMBINANTLY ENGINEERED POLYPEPTIDES CAPABLE OF RECYCLING NONCANONICAL COFACTORS” (The Regents of the University of California, priority 2022, published 2023)
